According to patent US20190367619A1 (ARGENX, published 2019):
Where two headings read alike, the source gives them in different places.

Experiments:
[1] = biological target: T1, TEV-cleaved wild-type recombinant human galectin-10 (soluble, in Fab complexes, or as recombinant galectin-10 … (human, UniProt Q05315 1-142)); assay: cell-based or functional assay
T1 sequence: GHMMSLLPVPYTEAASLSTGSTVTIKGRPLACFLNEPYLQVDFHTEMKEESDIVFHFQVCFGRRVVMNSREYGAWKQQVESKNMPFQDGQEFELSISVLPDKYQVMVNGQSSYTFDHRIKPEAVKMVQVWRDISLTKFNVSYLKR

[2] = biological target: T1, TEV-cleaved wild-type recombinant human …; assay: cell-based or functional assay; remark: listed apart in the source
[3] = biological target: T1, TEV-cleaved wild-type recombinant human …; assay: cell-based or functional assay; remark: listed apart in the source
[4] = biological target: T2, human galectin-10-His (recombinant human galectin-10 with TEV-cleavable N-terminal His-tag) (human); assay: ELISA binding (summary table), mouse IgG1
T2 construct: SEC-MALLS: dimer in solution; also called Gal10-His; humanGal10-His
T2 chain: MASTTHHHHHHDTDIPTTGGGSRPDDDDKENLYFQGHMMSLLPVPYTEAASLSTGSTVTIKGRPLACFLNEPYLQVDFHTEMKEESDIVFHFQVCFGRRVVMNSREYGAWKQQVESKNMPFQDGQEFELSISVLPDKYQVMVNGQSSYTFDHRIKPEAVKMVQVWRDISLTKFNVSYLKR

[5] = biological target: T3, cynomolgus galectin-10-His, WGS isoform (cynomolgus); assay: ELISA, mouse IgG1 on coated cynoGal10-His_WGS (0.5 ug/mL)
T3 construct: not shown: His tag
T3 chain: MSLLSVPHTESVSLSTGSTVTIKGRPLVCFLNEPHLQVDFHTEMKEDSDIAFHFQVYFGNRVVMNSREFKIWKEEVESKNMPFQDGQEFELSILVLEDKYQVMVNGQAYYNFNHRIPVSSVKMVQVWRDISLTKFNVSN
Experimental: In a similar setup to that used during the characterization of the scFv-human Fc molecules, the relative binding properties of the 7 mouse IgG1 antibodies were analyzed by ELISA. A Maxisorp plate was coated overnight with 0.5 μg/mL of human or cynomolgus WGS or YRT isoform of galectin-10-His. Then a serial dilution of each clone (from 100 nM, dilution 1/4, 12 points of dilutions) was incubated on coated galectin-10. After several washing steps, detection of the bound mouse IgG1 was carried out with an anti-mouse Fc-HRP antibody (DAMPO, Jackson ImmunoResearch, Catalog 715-035-150). Absorbance was measured at 450 nm (reference at 620 nm) with Tecan instrument. The raw data (OD values) were plotted on GraphPad Prism 7.01. The EC50 values for each antibody, calculated with a non-linear regression (log(agonist) vs. response Variable slope (four parameters)), are shown in the table below. Antibody 1D11 from the previous panel was included for comparison.

[6] = biological target: T2, human galectin-10-His (recombinant …); assay: BLI tandem on galectin-10-His; competitor: saturating 1C09 mIgG1 (10 ug/mL)
Outline: (§1)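 Read-out is the BLI wavelength shift (nm) from the competitor antibody, measured after the captured antigen has already been saturated by another antibody. Absence of shift means both antibodies share the binding site.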

[7] = biological target: T2, human galectin-10-His (recombinant …); assay: BLI tandem on galectin-10-His; competitor: saturating 1D11 mIgG1 (10 ug/mL)
Outline: as §1

[8] = biological target: T2, human galectin-10-His (recombinant …); assay: BLI tandem on galectin-10-His; competitor: saturating 2F09 mIgG1 (10 ug/mL)
Outline: as §1

[9] = biological target: T2, human galectin-10-His (recombinant …); assay: BLI tandem on galectin-10-His; competitor: saturating 4E08 mIgG1 (10 ug/mL)
Outline: as §1

[10] = biological target: T2, human galectin-10-His (recombinant …); assay: BLI tandem on galectin-10-His; competitor: saturating 6A05 mIgG1 (10 ug/mL)
Outline: as §1

[11] = biological target: T2, human galectin-10-His (recombinant …); assay: BLI tandem on galectin-10-His; competitor: saturating 6A08 mIgG1 (10 ug/mL)
Outline: as §1

[12] = biological target: T2, human galectin-10-His (recombinant …); assay: BLI tandem on galectin-10-His; competitor: saturating 6B06 mIgG1 (10 ug/mL)
Outline: as §1

[13] = biological target: T2, human galectin-10-His (recombinant …); assay: BLI tandem on galectin-10-His; competitor: saturating 6E10 mIgG1 (10 ug/mL)
Outline: as §1

[14] = biological target: T2, human galectin-10-His (recombinant …); assay: BLI tandem on galectin-10-His; isotype control as saturating antibody (10 ug/mL)
Outline: as §1

dissolution of in vitro grown Gal10 crystals (spinning disk confocal microscopy) [1]: ≤ 90 min
100% Solubilization of CLC (Conc uM) [2]: 7.86 µM
100% Inhibition of CLC formation (Conc uM) [3]: 0.34 µM
100% Solubilization of CLC (Conc uM) [3]: 7.86 µM
EC50 [4]: 0.1 nM
binding result [5]: no binding
binding signal (nm) [6]: 0.01 nm
binding signal (nm) [7]: 0.06 nm
binding signal (nm) [8]: 0.02 nm
binding signal (nm) [9]: 0 nm
binding signal (nm) [10]: 0.06 nm
binding signal (nm) [11]: 0.01 nm
binding signal (nm) [12]: 0 nm
binding signal (nm) [13]: -0.01 nm
binding signal (nm) [14]: 1.18 nm
B1: 1D11 mouse IgG1 (antibody, V domains shown)
VH: QVQLVESGGGLVQPGGSLRLSCAASGFTFDDYAMSWVRQAPGKGLEWVSGISWNGGSTYYAESMKGRFTISRDNAKNTLYLQMNSLKSEDTAVYYCAKDRNLGYRLGYPYDYWGQGTQVTVSS
VL: QSVLTQPPSVSGSPGETVTISCAGTSSDVGYGNYVSWYQQLPGMAPRLLIYEVNKRASGITDRFSGSKSGNTASLTISGLQSEDEGDYYCASYRSSNNAVFGGGTHLTVL
notes: VH on mouse IgG1 heavy chain constant domains (CH1-CH2-CH3), VL on mouse lambda light chain constant domain; also called 1D011; 1D11 mIgG1
